Measured values taken from the supplement of paper PMC10126150.
± gives the standard deviation of the averaged measurements.

Tested on: ATP
Assay: switch fluorescence ratio, 500 uM ATP over buffer (Cy3 cluster intensity, sum of 5 cycles each) (fold (ratio)); higher = stronger signal-on switching upon ATP binding; sequences stand for … in TCGTCGGCAGCGTCAGATGTGTATAAGAGACAGTTTTTTTTTTTTTTTTTTTTTTTTT…TC
Details: aptamer strand: ATP DNA aptamer (quencher-CACCTGGGGGAGTATTGCGGAGGAAGG + anchor), 100 nM annealed; ATP concentration: 500 uM
Summary of the method: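 Imaging in selection buffer was followed by imaging after 15 min with 500 uM ATP at 22 °C, for Cy3-labelled switching-strand clusters annealed to 100 nM quencher-labelled ATP aptamer on a modified Illumina MiSeq flow-cell. Five of these buffer/ATP cycles ran, separated by NaOH stripping and re-annealing. The fluorescence ratio per cluster is summed target-cycle over summed buffer-cycle Cy3 intensity, averaged per switch-domain sequence; clusters outside 100-1000 RFU were removed.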
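Also: ATP exposure 15 min at 22 °C before imaging.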

Sequence | switch fluorescence ratio
GAGGAGGCGG | 1.03 ± 0.014
GCCCGCAAGG | 1.42 ± 0.015
CCGTAGGTTT | 1.06 ± 0.037
ATTTTCAATG | 1 ± 0.018
TAGGGGACAG | 1.03 ± 0.058
CAAATCGTTT | 0.985 ± 0.038
ATAGGTTCGG | 0.968 ± 0.021
CCTTTTCGAG | 1.037 ± 0.0025
TTACGGGGCC | 0.977 ± 0.049
TAAAAAGAAG | 1 ± 0.045
GGTTGGCTCG | 1 ± 0.025
CGGGTTACGG | 0.9728 ± 0.0055
GGGGTAGTGC | 0.998 ± 0.015
TTGAGGGGAG | 1.01 ± 0.012
CAATATTTGC | 0.975 ± 0.035
CGTTTCGTCT | 1.05 ± 0.024
AGTAGGGCGT | 0.9964 ± 0.0088
ATATCACGCT | 1.03 ± 0.023
GAGGGGGACA | 0.9779 ± 0.0081
CACTTCCTTA | 1.098 ± 0.0081
GTTGCAAAAA | 1.18 ± 0.32
AGGCCTTGGC | 1.018 ± 0.0039
AAGTTGGGCA | 0.969 ± 0.039
CCTAGGGGGC | 1.24 ± 0.29
CCCATCTTTT | 1 ± 0.0025

Sequence | switch fluorescence ratio
CATTGGTGGG | 0.977 ± 0.028
GATTATCTGG | 0.984 ± 0.025
AGAAGCCCCC | 1.02 ± 0.048
CTCCGGGCCT | 1.42 ± 0.12
TATGCCCAGC | 1 ± 0.029
AAAGGTGGTA | 1.02 ± 0.066
TGATGAATGA | 1.001 ± 0.0021
CAGGGGTTAG | 0.9927 ± 0.0026
CCGTCTGGCG | 0.9959 ± 0.0067
AGCATGTAGA | 0.989 ± 0.046
GACTTGAATT | 0.99 ± 0.034
GGTTCATGTG | 1.01 ± 0.015
CACGTGGGAG | 1.04 ± 0.023
ACAGGCACGC | 1.069 ± 0.0017
GGGGCTCTCG | 0.99 ± 0.012
TCCCGGGGGA | 2 ± 1.2
AAAGAGTAGA | 1.025 ± 0.0034
GATTTTTCAT | 1 ± 0.034
TCAAATGTGC | 1.02 ± 0.033
TGTGAAGAAA | 0.977 ± 0.06
AATGGGCTAG | 0.993 ± 0.059
TCTTAGAAC | 1.009 ± 0.0062
TTATGTGAGG | 0.977 ± 0.034
GGTTGGAAAA | 1.0226 ± 0.00079
GGGGGGCTTT | 0.986 ± 0.022

Sequence | switch fluorescence ratio
GGCATGGGGG | 0.984 ± 0.017
GGGATGTTTG | 0.987 ± 0.017
CCGGGGTTTG | 0.998 ± 0.019
TAGATAGTTT | 0.981 ± 0.029
GACACCACAG | 1.162 ± 0.0035
TTGTTAAGAG | 0.986 ± 0.043
AAGAGCCAAA | 0.9735 ± 0.0097
AAGCGCGAGG | 1.03 ± 0.022
CACTGCTTTA | 1.02 ± 0.037
AATGGGTTCT | 0.998 ± 0.079
GGGAGAACG | 0.98 ± 0.017
CCACGTGGGC | 1.07 ± 0.14
TATTTAACAC | 1.1 ± 0.12
TCGTTTGTTT | 0.982 ± 0.04
AAGGCAAAAT | 1.04 ± 0.029
ATTAAATTAA | 1.034 ± 0.01
ATGACCTTCA | 2.1 ± 0.078
GAGGGGGAGA | 0.99 ± 0.024
TTCGGCGAGA | 0.989 ± 0.021
GCGGTAGTCG | 1.02 ± 0.052
AGGAAACTCG | 1.03 ± 0.052
CATATTTTGT | 1.0216 ± 0.00042
ATTTATCTGA | 0.99 ± 0.016
TTGCACCGGT | 1.034 ± 0.0055
TTAGGCACGC | 1.01 ± 0.023

Sequence | switch fluorescence ratio
GTTTGTTCGG | 0.995 ± 0.015
GAGGGAGGGG | 1.02 ± 0.044
AGGCGTGGGG | 1.03 ± 0.017
GAAGGTTGCG | 1.03 ± 0.056
TTGTGATGGA | 0.9896 ± 0.008
TAGAGATTAG | 1 ± 0.038
GACATATACA | 1.07 ± 0.025
GGGTTACTGG | 1.002 ± 0.0021
TCAGAATTGG | 1.01 ± 0.028
AATTGCTTTC | 1.06 ± 0.013
CTGGTAGGGG | 0.983 ± 0.015
TAAGATATTT | 0.9715 ± 0.0094
TTCAAGCGCT | 0.967 ± 0.019
AGAGCTGTTG | 1.01 ± 0.019
AAGCAAAGGT | 1.02 ± 0.027
GTTATGGGTA | 0.989 ± 0.025
GGATCCTGTT | 1.01 ± 0.027
GGGAGAGTTT | 1.01 ± 0.026
CTATGAAAAG | 1 ± 0.021
CCACTTGCTA | 1.16 ± 0.037
GGGAAAGGGA | 0.978 ± 0.022
GCGACCCTTT | 1.118 ± 0.0042
AGAAAAGGTT | 0.98 ± 0.021
TTAAAAACAT | 1.024 ± 0.0014
CGTAATGGGA | 1.04 ± 0.025

Sequence | switch fluorescence ratio
TTACCATGGA | 0.995 ± 0.0021
ATTTTAAAAT | 0.977 ± 0.013
AATGGGGATT | 1.01 ± 0.035
TTATGTTACT | 1.059 ± 0.0023
CGAGAGGGAG | 1.004 ± 0.0015
GTGTTTTAGC | 1.009 ± 0.0098
TTTAGAAGTG | 1.005 ± 0.0094
CTGGTTATAG | 0.989 ± 0.028
CTCCCCCGTC | 1.46 ± 0.37
TTAAAGGGTT | 1.04 ± 0.12
AGTGTCTGC | 0.97 ± 0.087
TTTTATATCC | 0.963 ± 0.028
TTGTGATAGA | 1.06 ± 0.052
TTTATTCGTT | 0.9784 ± 0.0063
AGACGTTATT | 1.15 ± 0.1
ACAGAGAAAT | 1.03 ± 0.036
TCGACATCGG | 1.016 ± 0.0061
TGGGGG | 1 ± 0.033
ATGAATGAGT | 0.985 ± 0.016
TTTGTTAGCG | 1.01 ± 0.053
ATCTCAGGGC | 0.979 ± 0.014
TTATTGCAGC | 1.07 ± 0.063
GGGGTATCGG | 0.9828 ± 0.0085
ATTTCGTTGC | 1.06 ± 0.058
AAGGTTACGT | 1.022 ± 0.0072

Sequence | switch fluorescence ratio
TTGATACATA | 1.03 ± 0.017
ACCGTGGGTC | 1.02 ± 0.029
GTGGGTCGGG | 1.006 ± 0.0049
GAGATGTACC | 1.03 ± 0.026
GAAAAGTGAG | 0.975 ± 0.016
CAGCGGGCGA | 1.01 ± 0.032
GCTGATTGTG | 1 ± 0.023
CTTTGTCGAG | 1 ± 0.019
TTCTTTGGCA | 1.052 ± 0.0061
TTTTAGAGGG | 0.982 ± 0.034
TCTCGGGGTA | 0.979 ± 0.046
CGTTGGTGCG | 0.98 ± 0.059
CGCTATTGGG | 1.046 ± 0.0086
TCGTAGTCGT | 0.995 ± 0.064
GGAAGCGGGT | 0.994 ± 0.042
TTTTTGTAAC | 1.01 ± 0.022
AATCTTCTGT | 0.982 ± 0.04
GGGATTGGGC | 0.992 ± 0.022
ACCGTGCCTG | 1.03 ± 0.072
ATGGGAGGTC | 0.97 ± 0.0071
ATAATATACT | 1.04 ± 0.055
TTTGGTTGTT | 0.988 ± 0.019
TTAGGTAACT | 1.01 ± 0.019
TTCTGTTGGG | 0.984 ± 0.013
GGTTTCAAAA | 0.99668 ± 0.00038

Sequence | switch fluorescence ratio
AATGGTGCGC | 0.984 ± 0.017
TGGGATTGAA | 0.9806 ± 0.0079
GTGTTAGAAG | 0.9749 ± 0.0015
AGTAGGGAAA | 1 ± 0.033
AGTGAGGCGT | 0.984 ± 0.018
TCGACTATTT | 1.04 ± 0.046
GCATTTAATG | 1 ± 0.05
GGGATACAGC | 1.03 ± 0.059
CGCGATATGG | 1.49 ± 0.17
GGCCTTGTG | 0.962 ± 0.035
TGAAAGGTGG | 1.04 ± 0.018
AGAAAGAGGA | 0.987 ± 0.023
CTGTCGTTTC | 0.975 ± 0.044
GACTTTTGGG | 1.01 ± 0.033
CATTGGGGCG | 0.926 ± 0.019
TAAAAGCCTG | 1.02 ± 0.052
TTTTAGTTAA | 1.01 ± 0.03
CGGCACCCGT | 0.9653 ± 0.0078
ATAGGAACGC | 0.995 ± 0.026
AATTCTAAAC | 0.9881 ± 0.0038
TTGGTAGTTG | 0.954 ± 0.011
TATCACGGTA | 1.176 ± 0.011
ACGGGATTTT | 1.03 ± 0.026
CAAGAGGGGG | 0.978 ± 0.043
TTTTTTTCCC | 1.01 ± 0.018

Sequence | switch fluorescence ratio
ACTAATGCTT | 1.01 ± 0.034
CGAGGTACGT | 0.9867 ± 0.0046
ATCGGGAACT | 1.02 ± 0.015
GCGGGGCACA | 0.987 ± 0.022
TTACGTGAGG | 1.02 ± 0.045
CGCGCAGTCG | 1.032 ± 0.003
AATTTACGGA | 1.06 ± 0.037
CCAGGGGTAA | 1.17 ± 0.055
GGGGCAGCGT | 0.999 ± 0.043
AGTGTTCGTT | 0.959 ± 0.023
TTTTCGTC | 0.978 ± 0.03
ATGTACAATT | 1.0917 ± 0.00014
TTGGTTGTCG | 1.02 ± 0.019
TGTGAATAGG | 1.02 ± 0.065
AATTTGCATG | 0.978 ± 0.013
GAACGTGGTA | 0.9936 ± 0.0038
CCCGAAGTCT | 1.05 ± 0.012
ACGGTGGAGA | 1.05 ± 0.015
AAGATACGCT | 1.06 ± 0.065
ACGTATGGGC | 1.082 ± 0.0027
AGGGCTAAAT | 0.995 ± 0.025
AGCGAGGGA | 1.029 ± 0.0068
AGGTTGGAGA | 0.992 ± 0.023
CGTTTGGAAT | 1.03 ± 0.051
GAGTGGTTTT | 0.991 ± 0.063
